Measured values as given in patent US11905559B2, “Materials and methods for controlling gene expression” (priority 2016, dated 2024).
Values joined by “and” are separate entries in the source; they are usually repeats but may differ in a detail not shown here. Identical values can stand only once.

What was measured:
[1] = Constant-force (CF) single-molecule optical tweezers folding assay of guanine-aptamer RNAs in guanine buffer; type: physicochemical; details: for Equilibrium force F^eq / Folding rate kf / Unfolding rate ku / Transition distance ΔX / ΔG (0): 3 mM Mg^2+; for ΔG (0): zero force
Text: The aptamer folding was monitored in real time using a constant-force (CF) assay. Equilibrium sampling techniques provide unprecedented insights into the rare events in the course of folding that are otherwise difficult to identify. The technique also allows for determination of the kinetic rates that has not been fully investigated in the guanine riboswitch. The relative dynamics of the helices have been investigated in ensemble and smFRET experiments, which indicated a non-dynamic P1-P3, upon which the P2 helix switches conformations. As shown in FIG. 6A (left panel), the RNA oscillated between the linear and the hairpin conformations (E↔D↔C) at 13 pN. The distances ΔXED=7.1±0.4 nm and ΔXDC=7.9±0.4 nm correspond to the folding of a 17±1 nt (P2) and 19±1 nt (P3) respectively (FIGS. 7A-B). The conversion of distances to nucleotides in CF assay are described in Table 2.
A miniaturized dual beam optical tweezers instrument was constructed with a sampling rate of 0.4, 4 and 40 kHz. Typically, in the tweezers set up (FIGS. 2A-E), a single-molecule of RNA is held between two beads via ˜550 nucleotide (nt) long Handles A and B. Preparation of Handles and the RNA is described in the section above. The streptavidin coated polystyrene bead (diameter 1.5-1.9 μm, Spherotech Inc.) is fixed on a micropipette via suction, and the anti-digoxigenin coated bead (diameter 4.0-4.9 μm, Spherotech Inc.) is held in the dual counter-propagating laser beam. The trap stiffness, K is measured at 0.04-0.06 pN/nm from the power spectrum analysis of the Brownian motion of the trapped bead. For power spectrum analysis, a polystyrene bead with diameter ˜4.6 μm is trapped in the counter-propagating laser beam in aqueous buffer with a fixed trap position. […] The average from 10 beads yielded K˜0.049±0.0008 pN/nm, and the stoke's drag coefficient, y=0.0364±0.0002 pN. s/μm. […] However, the autocorrelation time (τ0) defined as the τ1=1/2πfc as described by Zoldak et al., “Ultrafast folding kinetics and cooperativity of villin headpiece in single-molecule force spectroscopy”. Proc. Natl. Acad. Sci. U.S.A 110, 18156 (2013) sets the detection limit for the observable kinetics, which is different from the sampling frequencies. […] The ACF for the time series of force signal, Fi, with sampling rate δ and N data points, is calculated as,
In a constant-force (CF) experiment, the RNA is held at a preset force through feedback control. The preset force typically fluctuated around the mean with a standard deviation ±0.15 pN. In this mode, data is recorded from 4-40 kHz to capture the fast intermediates. The plots are shown as extension vs. time (as in FIG. 6A). In force-jump (FJ) assay, the force is suddenly jumped from one force to another, and then held constant thereafter, as shown in FIGS. 23A-B.
All FR, CF and FJ experiments were carried out at an ambient temperature, 25±0.5° C. The buffer in the microfluidics contained 10 mM Tris-HCl, pH 7.5 at 25° C., 250 mM NaCl, 3 mM MgCl2, and purine concentrations as indicated in wild-type aptamer. Unless stated otherwise, Mg^2+ concentration in the buffer was maintained at 3 mM in all experiments. The buffer in mutant m1 contained 5 mm Mg^2+ and 1 μM G, and in m3 contained 5 mM Mg^2+ and 200 nM Guanine. For the remaining m2, m4, m5 and m6 mutants, the buffer in single-molecule experiments was supplemented only with 3 mM Mg^2+ and 200 nM Guanine.
In the force-ramp experiment, the trap was moved away (pull cycle) from the micropipette at 200 nm/sec, which corresponded to a loading rate of 7-8 pN/sec. This movement of the trap exerted a tension at the ends of the tethered RNA aptamer. […] In the constant-force (CF) experiment, the RNA was held at a preset force (FIG. 6A). The loading rate in CF experiments was zero. The preset force typically fluctuated around the mean with standard deviation ±0.15 pN. […]

[2] = Isothermal titration calorimetry (ITC); type: binding; details: 30° C., 50 mM K^+ Hepes pH 7.5, 100 mM KCl, 10 mM MgCl2, read-out: KD for guanine
Description: For ITC experiments, wild-type G-aptamer and the mutant RNAs were synthesized by in vitro transcription of the DNA template and purified by denaturing polyacrylamide gel electrophoresis (PAGE). The ligand guanine was introduced in the syringe, while the RNA into the sample cell at a final concentration of 10 μM and 1 μM respectively. The concentrations were determined by absorbance reading using ε260=12010 M^−1 cm^−1 (guanine) and ε260=711400 M^−1 cm^−1 (RNA). The buffer in the syringe and the sample cell contained 50 mM K^+ Hepes (pH 7.5), 100 mM KCl, and 10 mM MgCl2. Binding reactions were performed at 30° C. on a MicroCal iTC200 instrument (Malvern) with a reference power of 6 μcal/sec, an initial delay of 60 secs and a stirring speed of 750 rpm. Guanine was titrated into the sample cell in 16 injections (2.5 μl each). The injection rate was 0.5 μl/sec and the spacing between the injections was maintained at 120 sec. Data was baseline corrected and fitted to a single-site binding model to obtain association constant (KA), stoichiometry (n) and binding enthalpy, ΔH. The dissociation constant (KD) and the binding free energy, ΔG was obtained from the fitted parameters using the following relations. All data analysis was performed using the Origin ITC software.
The ITC results are reported as mean±standard deviation from three independent experiments.

[3] = transition BA (P1 folding), 200 nM G (rates at 8.5 pN)
[4] = transition BA (P1 folding), F 8.5 pN, 200 nM G
[5] = transition BA (P1 folding), F 8.5 pN, 200 nM G, no helix width adjustment
[6] = transition BA (P1 folding), from data at 8.5 pN, 200 nM G
[7] = transition C′B (L2-L3 folding), 200 nM G (rates at 8.5 pN)
[8] = transition C′B (L2-L3 folding), F 8.5 pN, 200 nM G
[9] = transition C′B (L2-L3 folding), from data at 8.5 pN, 200 nM G
[10] = transition DC (P3 folding), 200 nM G (rates at 13 pN)
[11] = transition DC (P3 folding), F 13 pN, 200 nM G
[12] = transition DC (P3 folding), from data at 13 pN, 200 nM G
[13] = transition ED (P2 folding), 200 nM G (rates at 13 pN)
[14] = transition ED (P2 folding), F 13 pN, 200 nM G
[15] = transition ED (P2 folding), from data at 13 pN, 200 nM G
[16] = transition BA (P1 folding), F 8.0 pN, 1 uM G
[17] = transition C′B (L2-L3 folding), F 8.0 pN, 1 uM G
[18] = transition DC (P3 folding), F 12.0 pN, 1 uM G
[19] = transition ED (P2 folding), F 13.5 pN, 1 uM G

Molecule	Equilibrium force F^eq [1, 3] [pN]	Folding rate kf [1, 4] [s⁻¹]	Unfolding rate ku [1, 4] [s⁻¹]	Transition distance ΔX [1, 5] [nm]	ΔG (0) [1, 6]	Equilibrium force F^eq [1, 7] [pN]	Folding rate kf [1, 8] [s⁻¹]	Transition distance ΔX [1, 8] [nm]	Unfolding rate ku [1, 8] [s⁻¹]	ΔG (0) [1, 9] [kBT]	Equilibrium force F^eq [1, 10] [pN]	Folding rate kf [1, 11] [s⁻¹]	Transition distance ΔX [1, 11] [nm]	Unfolding rate ku [1, 11] [s⁻¹]	ΔG (0) [1, 12]	Equilibrium force F^eq [1, 13] [pN]	Folding rate kf [1, 14] [s⁻¹]	Transition distance ΔX [1, 14] [nm]	Unfolding rate ku [1, 14] [s⁻¹]	Kd [2] [nM]	also measured
m4: m4 mutant guanine sensing aptamer RNA (SEQ ID NO: 5); A59G/U67C in the P3 hairpin (nucleic acid, RNA, backbone and methylation of C not given here, A59G/U67C in the P3 hairpin) CACUCAUAUAAUCGCGUGGAUAUGGCACGCAAGUUUCUACCGGGCGCCGUAAACGUCCGACUAUGGGUG	8.0 ± 0.1	0.33 ± 0.02	1.0 ± 0.1	9.5 ± 0.3	−12.5 kBT and −12.5 ± 0.6 kBT	7.6 ± 0.1	0.22 ± 0.02	3.4 ± 0.1	0.56 ± 0.04	−6.1 ± 0.2	13.0 ± 0.02	16.3 ± 0.3	7.8 ± 0.2	16.5 ± 0.4	−17.3 ± 0.6 kBT	13.9 ± 0.01	34.8 ± 1.1	7.2 ± 0.2	8.8 ± 0.2	3.59 ± 0.05	L2-L3 kissing rate reduced versus wild-type ([1]; C′B folding rate): 4.5 fold; Barrier ΔGkiss^‡ prior to the L2-L3 interactions ([1]; free energy landscape transformed to zero force): ~8.4 kBT; Increase of P3 stability ΔG(0) versus wild-type ([1]; transition DC): 1 kT; ΔG (0) [1, 15]: −17.6 ± 0.6 kBT
m6: m6 mutant guanine sensing aptamer RNA (SEQ ID NO: 7); U67A, shorter P3 hairpin and larger L3 loop (nucleic acid, RNA, backbone and methylation of C not given here, U67A, shorter P3 hairpin and larger L3 loop) CACUCAUAUAAUCGCGUGGAUAUGGCACGCAAGUUUCUACCGGGCACCGUAAAAGUCCGACUAUGGGUG	8.3 ± 0.3	0.7 ± 0.02	1.0 ± 0.1	9.8 ± 0.2	−13.9 ± 0.4 kBT	7.2 ± 0.5	7.5 ± 0.2	3.5 ± 0.2	23.9 ± 0.6	−6.1 ± 0.4	10.6 ± 0.1	1.1 ± 0.03	7.3 ± 0.1	115.4 ± 4.4	−11.1 kBT and −11.1 ± 0.3 kBT	13.8 ± 0.03	23.9 ± 0.5	7.1 ± 0.1	7.2 ± 0.2	6.7 ± 0.63	L2-L3 kissing faster than wild-type ([1]; C′B folding rate): 8.33 times; ΔG (0) [1, 15]: −17.1 ± 0.3 kBT
m7: m7 mutant guanine sensing aptamer RNA (SEQ ID NO: 8); U25C in J1/2 (nucleic acid, RNA, backbone and methylation of C not given here) CACUCAUAUAACCGCGUGGAUAUGGCACGCAAGUUUCUACCGGGCACCGUAAAUGUCCGACUAUGGGUG																				16.9 ± 1	Equilibrium force F^eq ([1]; transition BA (P1 folding), 1 uM G (rates at 8.0 pN)): 7.4 ± 0.2 pN; Folding rate kf [1, 16]: 0.5 ± 0.08 s⁻¹; Transition distance ΔX [1, 16]: 9.6 ± 0.3 nm; Unfolding rate ku [1, 16]: 1.7 ± 0.4 s⁻¹; ΔG (0) ([1]; transition BA (P1 folding), from data at 8.0 pN, 1 uM G): −11.8 kBT and −11.8 ± 0.6 kBT; Equilibrium force F^eq ([1]; transition C′B (L2-L3 folding), 1 uM G (rates at 8.0 pN)): 8.1 ± 0.4 pN; Folding rate kf [1, 17]: 0.9 ± 0.2 s⁻¹; Transition distance ΔX [1, 17]: 3.5 ± 0.2 nm; Unfolding rate ku [1, 17]: 1.2 ± 0.2 s⁻¹; ΔG (0) ([1]; transition C′B (L2-L3 folding), from data at 8.0 pN, 1 uM G): −6.5 kBT and −6.5 ± 0.5 kBT; Equilibrium force F^eq ([1]; transition DC (P3 folding), 1 uM G (rates at 12.0 pN)): 11.8 ± 0.05 pN; Folding rate kf [1, 18]: 16.6 ± 0.5 s⁻¹; Transition distance ΔX [1, 18]: 7.6 ± 0.2 nm; Unfolding rate ku [1, 18]: 28.3 ± 1.0 s⁻¹; ΔG (0) ([1]; transition DC (P3 folding), from data at 12.0 pN, 1 uM G): −14.8 ± 0.6 kBT; Equilibrium force F^eq ([1]; transition ED (P2 folding), 1 uM G (rates at 13.5 pN)): 13.3 ± 0.05 pN; Folding rate kf [1, 19]: 10.0 ± 0.3 s⁻¹; Transition distance ΔX [1, 19]: 7.1 ± 0.3 nm; Unfolding rate ku [1, 19]: 20.1 ± 0.5 s⁻¹; ΔG (0) ([1]; transition ED (P2 folding), from data at 13.5 pN, 1 uM G): −15.8 ± 1.0 kBT
